Measurements: US20240018240A1 (Hoffmann-La Roche, published 2024)

How the values were obtained:
[1] = biological target: T1, Cynomolgus CD3ε stalk-Fc(knob)-Avi/CD3δ stalk-Fc(hole) (cynomolgus); test: SPR (Biacore T200, 25°C); monovalent IgG captured by anti-PG antibody on C1 chip, CD3ε/δ-Fc as analyte; 1:1 Langmuir fit; triplicates
T1 construct: Heterodimeric Fc fusion, soluble analyte in SPR; also called cynomolgus CD3ε/δ
Protocol: (§1) Kinetic constants were derived using the Biacore T200 Evaluation Software (GE Healthcare Life Sciences), to fit rate equations for 1:1 Langmuir binding by numerical integration. The half-life (t_{1/2}) of the interaction was calculated using the formula t_{1/2}=ln 2/koff.
(§2) SPR experiments were performed as described in Example 3, with the monovalent IgG molecules prepared in Example 6.
(§3) To analyze the interaction to CD3, IgG molecules were captured for 240 s at 50 nM with a flow rate of 5 μl/min. Human and cynomolgus CD3ε stalk-Fc(knob)-Avi/CD3δ-stalk-Fc(hole) were passed at a concentration of 0.061-250 nM with a flow rate of 30 μl/min through the flow cells for 300 s. The dissociation was monitored for 800 s.

[2] = biological target: T2, Human CD3ε stalk-Fc(knob)-Avi/CD3δ stalk-Fc(hole) (human); test: as above
T2 construct: Heterodimer of CD3 delta and CD3 epsilon ectodomains fused to a human Fc domain with knob-into-hole modifications and C-terminal Avi-tag; also called human CD3ε/δ; CD3ε/δ
Protocol: as §1, §2, §3

[3] = biological target: T1, Cynomolgus CD3ε stalk-Fc(knob)-Avi/CD3δ …; test: SPR (Biacore T200, 25°C); monovalent IgG captured by anti-PG antibody on C1 chip, CD3ε/δ-Fc as analyte; t1/2 = ln 2/koff
Protocol: as §1, §2, §3

[4] = biological target: T2, Human CD3ε stalk-Fc(knob)-Avi/CD3δ …; test: as above
Protocol: as §1, §2, §3

[5] = biological target: T2, Human CD3ε stalk-Fc(knob)-Avi/CD3δ …; test: SPR (Biacore T200, 25°C), monovalent IgG format, same conditions
Protocol: as §2, §3

Kd [1]: 0.224 nM | koff [1]: 0.000981 s⁻¹ | kon [1]: 4.38e+06 M⁻¹ s⁻¹ | Kd [2]: 0.456 nM | koff [2]: 0.0014 s⁻¹ | kon [2]: 3.08e+06 M⁻¹ s⁻¹ | t1/2 [3]: 11.8 min | t1/2 [4]: 8.25 min | fold increase of affinity compared to CD3orig [5]: ≤ 10 fold
B1: anti-CD3 antibody P035.093 in monovalent human IgG1 format (antibody)
heavy: not shown
chain: DKTHTCPPCPAPEAAGGPSVFLFPPKPKDTLMISRTPEVTCVVVDVSHEDPEVKFNWYVDGVEVHNAKTKPREEQYNSTYRVVSVLTVLHQDWLNGKEYKCKVSNKALGAPIEKTISKAKGQPREPQVCTLPPSRDELTKNQVSLSCAVKGFYPSDIAVEWESNGQPENNYKTTPPVLDSDGSFFLVSKLTVDKSRWQQGNVFSCSVMHEALHNHYTQKSLSLSP
light: EVQLLESGGGLVQPGGSLRLSCAASGFTFSSYAMNWVRQAPGKGLEWVSRIRSKYNNYATYYADSVKGRFTISRDDSKNTLYLQMNSLRAEDTAVYYCVRASNFPASYVSYFAYWGQGTLVTVSSASVAAPSVFIFPPSDEQLKSGTASVVCLLNNFYPREAKVQWKVDNALQSGNSQESVTEQDSKDSTYSLSSTLTLSKADYEKHKVYACEVTHQGLSSPVTKSFNRGEC
notes: also called P035.093 (in monovalent IgG format)
